The values that follow are results of earlier work, collected in paper PMC3379994, “Comprehensive Analysis of Interactions between the Src-Associated Protein in Mitosis of 68 kDa and the Human Src-Homology 3 Proteome” (PLoS ONE, 2012).

The series deals with Nef (Human immunodeficiency virus 1) (UniProt P04324). The experiment in a line: SPR. Background: SPR reads the build-up and loss of mass on a sensor chip optically.

Chain of Hck SH3 (P08631 75-141): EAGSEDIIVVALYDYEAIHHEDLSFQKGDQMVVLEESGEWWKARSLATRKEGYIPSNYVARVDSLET

As usually defined, the Kd is a measure of binding affinity in units of concentration. With Hck SH3 (from UniProt P08631), the equilibrium dissociation constant (Kd) is 250 nM.
